{
  "source": "patent US20230070731A1",
  "about": "“COMPOSITIONS FOR SMALL MOLECULE CONTROL OF PRECISE BASE EDITING OF TARGET NUCLEIC ACIDS AND METHODS OF USE THEREOF” (THE TRUSTEES OF THE UNIVERSITY OF PENNSYLVANIA, priority 2020, published 2023)",
  "test_system": "BL21(DE3) E. coli",
  "experiment": "Bacterial DNA deaminase rifampicin mutagenesis assay (acquired rifampin resistance)",
  "format": "cell-based",
  "details": "expression in E. coli",
  "method": "In initial studies, a foreign protein/domain was inserted into an enhanced hyperactive version of AID described in U.S. patent application Ser. No. 16/025,261 (See for example, SEQ ID NO: 20 of the '261 patent application) which is incorporated herein by reference as though set forth in full. This mutant version of the human DNA deaminase AID, involved in antibody maturation was assessed and the loop regions which appeared to be tolerant to insertion of control elements (e.g., Green Fluorescent Protein GFP fragments) were identified as described hereinbelow. Several candidate locations for insertion were identified. We used an E. coli-based rifampin mutagenesis assay to evaluate activity (See Kohli et al., J Biol Chem. (2009) 284:pages 22898-904). In this assay we measure the activity level of a mutator by measuring how many E. coli can be turned resistant to the antibiotic rifampin when the enzyme is turned on.\nThe mutation frequency of various DNA deaminases, including insertion constructs, were determined using a modified version of previously reported rifampin mutagenesis assay (Kohli, JBC 2009). […] The mutation frequencies were then calculated by the ratio of rifampicin resistant colonies to total population. […]",
  "data": [
    {"molecule": "AID*: hyperactive AID variant (K10E, F42E, T82I, D118A, R119G, K120R, A121R, H130A, R131E, F141Y, F145E, E156G) with N-terminal MBP tag (protein, UniProt Q9GZX7 1-198, looked up, variant K10E F42E T82I D118A R119G K120R A121R H130A R131E F141Y F145E E156G, N-terminal MBP tag) Single-stranded DNA cytosine …: MDSLLMNRREFLYQFKNVRWAKGRRETYLCYVVKRRDSATSESLDFGYLRNKNGCHVELLFLRYISDWDLDPGRCYRVTWFISWSPCYDCARHVADFLRGNPNLSLRIFTARLYFCEAGRREPEGLRRLAEAGVQIAIMTYKDYEYCWNTFVENHGRTFKAWEGLHENSVRLSRQLRRILLPLYEVDDLRDAFRTLGL", "values": [
      {"measurement": "Rif^R increase relative to catalytically inactive mutant AID(E58A)", "result": 265, "unit": "fold"}
    ]}
  ]
}
